From patent publication US20050123549A1 (IMMUNOGEN, published 2005)

Tests used:
[1] = molecular target: T1, Muc1 mucin carrying the CA6 sialoglycotope (human, UniProt P15941 24-1255, sialylated O-linked carbohydrate carrying the CA6 epitope; positions not stated); test: flow cytometry on MDA-MB-157 cells, apparent Kd
T1 construct: whole, on cells; Target of DS6 on CA6-positive human cell lines (flow cytometry) and in their lysates (dot blots, immunoprecipitation); also called CA6 antigen; DS6 antigen
Protocol: (§1) Human cell lines were obtained from the American Type Culture Collection (ATCC) with the exception of OVCAR5 (Kearse et al., Int. J. Cancer 88(6):866-872 (2000)), OVCAR8 and IGROV1 cells (M. Seiden, Massachusetts General Hospital). All cells were grown in RPMI 1640 supplemented with 4 mM L-glutamine, 50 U/ml penicillin, 50 μg/ml streptomycin (Cambrex Bio Science, Rockland, Me.) and 10% v/v fetal bovine serum (Atlas Biologicals, Fort Collins, Colo.), referred hereafter as culture media. Cells were maintained in a 37° C., 5% CO₂ humidified incubator.
(§2) Cells ([…]) were incubated, on ice for 3-4 h, with serially diluted concentrations of the DS6 antibody prepared in FACS buffer (2% goat serum, RPMI) into 96-well plates. The cells were spun down in a table top centrifuge at 1500 rpm for 5 min at 4° C. After removing the media, the wells were then refilled with 150 μl of FACS buffer. The wash step was then repeated. FITC-labeled goat anti-mouse IgG (Jackson Immunoresearch) was diluted 1:100 to FACS buffer and incubated with the cells for 1 h on ice. The plate was covered in foil to prevent photobleaching of the signal. After two washes, the cells were fixed with 1% formaldehyde and analyzed on a flow cytometer.

[2] = molecular target: T1, Muc1 mucin carrying the CA6 …; test: flow cytometry on TOV-21G cells, apparent Kd
Protocol: as §1, §2

[3] = molecular target: T1, Muc1 mucin carrying the CA6 …; test: flow cytometry on WISH cells, apparent Kd
Protocol: as §1, §2

[4] = molecular target: T1, Muc1 mucin carrying the CA6 …; test: flow cytometry on Hs766T cells, apparent Kd
Protocol: as §1, §2

[5] = molecular target: T1, Muc1 mucin carrying the CA6 …; test: flow cytometry on MDA-MB-468 cells, apparent Kd
Protocol: as §1, §2

[6] = molecular target: T1, Muc1 mucin carrying the CA6 …; test: flow cytometry on TOV-21G cells, apparent Kd; remark: listed apart in the source
[7] = molecular target: T1, Muc1 mucin carrying the CA6 …; test: flow cytometry on HPAC cells, apparent Kd
Protocol: as §1, §2

[8] = molecular target: T1, Muc1 mucin carrying the CA6 …; test: flow cytometry on SW1990 cells, apparent Kd
Protocol: as §1, §2

[9] = molecular target: T1, Muc1 mucin carrying the CA6 …; test: flow cytometry on HeLa cells, apparent Kd
Protocol: as §2

[10] = molecular target: T1, Muc1 mucin carrying the CA6 …; test: flow cytometry on SU.86.86 cells, apparent Kd
Protocol: as §2

Kd [1]: 0.197 nM
Kd [2]: 0.307 nM
Kd [3]: 2.38 nM
Kd [4]: 2.32 nM
Kd [5]: 0.813 nM
Kd [6]: 0.307 nM
Kd [7]: 23.5 nM
Kd [8]: 0.368 nM
Kd [9]: 0.694 nM
Kd [10]: 1.04 nM
B1: murine DS6 anti-CA6 monoclonal antibody (antibody, IgG1, V domains shown)
VH: QAYLQQSGAELVRSGASVKMSCKASGYTFTSYNMHWVKQTPGQGLEWIGYIYPGNGATNYNQKFKGKATLTADPSSSTAYMQISSLTSEDSAVYFCARGDSVPFAYWGQGTLVTVSA
VL: QIVLTQSPAIMSASPGEKVTITCSAHSSVSFMHWFQQKPGTSPKLWIYSTSSLASGVPARFGGSGSGTSYSLTISRMEAEDAATYYCQQRSSFPLTFGAGTKLELKR
notes: Whole murine monoclonal IgG from the DS6 hybridoma (ATCC PTA-4449); the 3' heavy chain cloning primer was BamIgG1 and the light chain primer was kappa; also called DS6 antibody; muDS6
